Columns and labels:
Assay in all cases: Crosslinking/co-immunoprecipitation/mass spectrometry (TMT quantitative proteomics) to identify irisin receptors
Format in all cases: binding
[1] = biological target: T1, MLO-Y4 cell surface proteins (Mus musculus, UniProt Q66GT5); conditions: co-precipitated protein Ptpmt1 (PTPM1_MOUSE)
T1 construct: endogenous in cells; host or cells: MLO-Y4
T1 sequence (Q66GT5 32-193): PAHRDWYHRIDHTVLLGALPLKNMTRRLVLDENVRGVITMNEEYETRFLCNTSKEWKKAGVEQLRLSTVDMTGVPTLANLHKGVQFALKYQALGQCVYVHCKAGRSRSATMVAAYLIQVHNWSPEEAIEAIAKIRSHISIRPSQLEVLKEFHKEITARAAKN
How it was run: (§1)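 Relative protein abundance came from 6-plex TMT MS3 quantitation on an Orbitrap Fusion Lumos, after in-gel trypsin digestion of Coomassie-stained SDS-PAGE lanes. Input was a Ni-NTA pulldown (250 mM imidazole elution) of lysates from murine MLO-Y4 cells. These cells were treated on ice with His-tagged irisin or adipsin (10 nM, 20 min) in serum-free medium, then crosslinked with 1.5 mM DTSSP for 30 min.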

[2] = biological target: T2, MLO-Y4 cell surface proteins (Mus musculus, UniProt Q9Z2I9); conditions: co-precipitated protein Sucla2 (SUCB1_MOUSE)
T2 construct: endogenous in cells; host or cells: MLO-Y4
T2 sequence (Q9Z2I9 54-463): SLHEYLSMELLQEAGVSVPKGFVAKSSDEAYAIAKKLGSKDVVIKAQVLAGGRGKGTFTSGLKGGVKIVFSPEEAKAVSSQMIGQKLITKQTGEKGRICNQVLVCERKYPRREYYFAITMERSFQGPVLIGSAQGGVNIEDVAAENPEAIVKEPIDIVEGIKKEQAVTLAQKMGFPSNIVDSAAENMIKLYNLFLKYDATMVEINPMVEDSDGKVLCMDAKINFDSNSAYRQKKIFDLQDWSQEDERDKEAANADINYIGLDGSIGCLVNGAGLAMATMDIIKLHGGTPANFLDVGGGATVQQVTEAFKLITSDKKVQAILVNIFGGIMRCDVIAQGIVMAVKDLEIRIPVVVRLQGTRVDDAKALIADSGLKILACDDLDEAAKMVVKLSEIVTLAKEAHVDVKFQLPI
How it was run: as §1

[3] = biological target: T3, MLO-Y4 cell surface proteins (Mus musculus, UniProt Q8BJQ9); conditions: co-precipitated protein Csgalnact1 (CGAT1_MOUSE)
T3 construct: endogenous in cells; host or cells: MLO-Y4
T3 sequence (Q8BJQ9 1-530): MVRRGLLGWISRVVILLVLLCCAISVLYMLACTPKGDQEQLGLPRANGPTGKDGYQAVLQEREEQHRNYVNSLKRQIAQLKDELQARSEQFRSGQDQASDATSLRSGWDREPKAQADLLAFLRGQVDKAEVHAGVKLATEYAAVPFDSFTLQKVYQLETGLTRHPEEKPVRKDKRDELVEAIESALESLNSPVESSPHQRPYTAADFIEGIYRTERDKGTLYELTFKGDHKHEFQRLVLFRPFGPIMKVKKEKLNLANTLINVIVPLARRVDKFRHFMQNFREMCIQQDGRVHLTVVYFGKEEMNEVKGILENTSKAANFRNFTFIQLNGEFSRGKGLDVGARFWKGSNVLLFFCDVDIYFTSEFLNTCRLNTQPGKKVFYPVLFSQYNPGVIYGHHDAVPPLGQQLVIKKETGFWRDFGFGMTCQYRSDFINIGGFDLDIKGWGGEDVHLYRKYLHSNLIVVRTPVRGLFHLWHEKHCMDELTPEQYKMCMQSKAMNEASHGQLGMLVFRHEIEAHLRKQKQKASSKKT
How it was run: as §1

B1: irisin: secreted cleaved form of FNDC5; recombinant human/mouse irisin with C-terminal his tag produced in HEK293 cells (protein)
chain: DSPSAPVNVTVRHLKANSAVVSWDVLEDEVVIGFAISQQKKDVRMLRFIQEVNTTTRSCALWDLEEDTEYIVHVQAISIQGQSPASEPVLFKTPREAEKMASKNKDEVTMKE
modifications: left off: small tags and cut ends
notes: secreted cleaved form of FNDC5; recombinant human/mouse irisin with C-terminal his tag produced in HEK293 cells
- TMT signal-to-noise ratio [1]: 51.6065
- irisin/adipsin TMT signal-to-noise ratio [1]: 0.559
- TMT signal-to-noise ratio [2]: 19.8331
- irisin/adipsin TMT signal-to-noise ratio [2]: 0.390
- TMT signal-to-noise ratio [3]: 1300.88
- irisin/adipsin TMT signal-to-noise ratio [3]: 0.536
